T1: human ASIC1 (human, UniProt P78348 1-528)
T1 sequence: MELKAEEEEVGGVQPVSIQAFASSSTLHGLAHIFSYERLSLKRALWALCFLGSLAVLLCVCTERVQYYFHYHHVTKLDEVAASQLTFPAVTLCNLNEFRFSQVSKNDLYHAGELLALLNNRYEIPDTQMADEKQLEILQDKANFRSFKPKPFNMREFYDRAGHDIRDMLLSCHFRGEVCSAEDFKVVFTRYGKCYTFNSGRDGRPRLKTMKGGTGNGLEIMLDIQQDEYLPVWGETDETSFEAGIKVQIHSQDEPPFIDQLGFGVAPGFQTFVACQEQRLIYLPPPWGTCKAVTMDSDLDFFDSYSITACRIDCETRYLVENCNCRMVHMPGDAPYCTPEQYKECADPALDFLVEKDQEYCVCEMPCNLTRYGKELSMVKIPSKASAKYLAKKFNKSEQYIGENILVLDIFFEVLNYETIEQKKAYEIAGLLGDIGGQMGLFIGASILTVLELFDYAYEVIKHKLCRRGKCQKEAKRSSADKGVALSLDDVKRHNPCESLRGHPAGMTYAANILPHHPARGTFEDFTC

T2: mouse ASIC1a (mouse, UniProt Q6NXK8 1-526)
T2 sequence (looked up): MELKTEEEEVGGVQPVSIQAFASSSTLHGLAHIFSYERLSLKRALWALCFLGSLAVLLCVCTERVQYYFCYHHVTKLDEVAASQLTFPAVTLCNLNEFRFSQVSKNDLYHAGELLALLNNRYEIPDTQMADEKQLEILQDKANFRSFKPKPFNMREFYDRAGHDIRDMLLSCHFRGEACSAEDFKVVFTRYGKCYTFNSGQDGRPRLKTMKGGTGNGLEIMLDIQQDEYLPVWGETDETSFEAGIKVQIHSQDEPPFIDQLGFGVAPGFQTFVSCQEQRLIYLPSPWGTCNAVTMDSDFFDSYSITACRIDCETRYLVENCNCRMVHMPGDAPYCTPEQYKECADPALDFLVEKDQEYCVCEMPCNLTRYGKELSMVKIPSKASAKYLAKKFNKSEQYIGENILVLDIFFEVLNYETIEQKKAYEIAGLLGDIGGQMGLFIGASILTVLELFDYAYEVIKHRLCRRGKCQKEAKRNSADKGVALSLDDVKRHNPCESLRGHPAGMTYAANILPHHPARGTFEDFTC

T3: human ASIC3 (human, UniProt Q9UHC3 1-531)
T3 construct: whole, on cells; Expressed on 3T3 cells (3T3/hASIC3) or HEK293 cells (HEK/hASIC3-QCells); also called hASIC3
T3 sequence (looked up): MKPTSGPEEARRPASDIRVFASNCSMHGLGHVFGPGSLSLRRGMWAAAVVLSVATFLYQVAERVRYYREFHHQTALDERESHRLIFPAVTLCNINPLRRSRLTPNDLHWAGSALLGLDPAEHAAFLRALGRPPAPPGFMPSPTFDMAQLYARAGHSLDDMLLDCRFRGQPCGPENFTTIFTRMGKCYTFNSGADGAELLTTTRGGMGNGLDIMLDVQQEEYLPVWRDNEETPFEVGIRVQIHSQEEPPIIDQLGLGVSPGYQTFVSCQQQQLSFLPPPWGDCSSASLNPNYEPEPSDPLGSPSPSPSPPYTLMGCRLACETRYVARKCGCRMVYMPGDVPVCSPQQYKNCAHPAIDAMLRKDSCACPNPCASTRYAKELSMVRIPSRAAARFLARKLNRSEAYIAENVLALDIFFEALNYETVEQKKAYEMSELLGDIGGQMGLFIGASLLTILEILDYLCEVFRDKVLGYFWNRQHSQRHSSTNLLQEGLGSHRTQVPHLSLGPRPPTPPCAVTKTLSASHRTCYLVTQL

T4: human ASIC1/ASIC3 channels (co-expressed human ASIC1a and human ASIC3) (human, UniProt Q9UHC3 1-531)
T4 construct: whole, on cells; 3T3 cells co-expressing both subunits; also called 3T3/hASIC1/3; 3T3-hASIC1/ASIC3
T4 sequence 1: T1 sequence
T4 sequence 2: T3 sequence (looked up)

B1: H3M7118N (antibody, V domains shown)
VH: EVQLLESGGGLVQPGGSLRLSCAASGFTFRNYAMSWVRQAPGKGLEWVSAINGGGDSTYYADSVKGRFTISRDNSKNTLYLQMNSLRAEDTAVYYCAKEEGDWNYVGYGYYYYYGMDVWGQGTTVTVSS
VL: DIQMTQSPSSMSASVGDRVTITCRASQGISSWLAWYQQKPGKAPKLLIYAASSLQSGVPSRFSGSGSGTDFTLTIRSLQPEDFATYYCQQANSFPYTFGQGTKLEIK
notes: Chimeric: human variable, mouse constant domains; H3M prefix marks the Fc, isotype not spelled out
B2: H4H6721N2 (antibody, human IgG4, V domains shown)
VH: EVQLLASGGGLVQPGGSLRLSCAASGFTFSSFAMSWVRQAPGKGLEWVSGISGSGVSTYYADSVKGRFTISRDNSKNTLYLQMNSLRAEDTAAYYCAKEAYKWQPWGQGTLVTVSS
VL: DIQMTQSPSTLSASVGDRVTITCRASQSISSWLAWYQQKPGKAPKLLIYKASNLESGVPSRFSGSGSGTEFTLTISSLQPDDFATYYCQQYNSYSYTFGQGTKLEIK
B3: H3M6715N (antibody, V domains shown)
VH: EELVLESGGGLVQPGGSLRLSCAASGFMFSTYAMSWVRQAPGKGLEWVSLISGRDGNTYYADSVKGRFTISRDNSRNTLYLQLNSLRAEDTALYYCAKDTAVVPGYGMDVWGQGTTVTVSS
VL: DIQMTQSPATLSASVGDRVTITCRASQTISNWLAWYQQRPGKAPKLLIYKASSLETGVPSRFSGSGSGTEFTLTISSLQPDDFASYYCQQYNSYSWTFGQGTKVEIK
notes: as for B1
B4: H3M6760N (antibody, V domains shown)
VH: B3 VH with E2D, L3R, T31S, L93V
VL: B3 VL with A9S, T28S, T56S
notes: as for B1
B5: H3M6713N (antibody, V domains shown)
VH: B3 VH with N57S, N74I, Q82H, L93V, M108L
VL: B3 VL
notes: as for B1
B6: H4H7101N (antibody, human IgG4, V domains shown)
VH: B2 VH with P14T, V56G, T110I, L111R
VL: DIQMTQSPSTLSASVGDRVTITCRASQSISSWLAWYQQKPGKAPNLLIYKTSNLESGVPSRFSGSGSGTEFTLTISSLQPDDFATYYCQQYNSYSYTFGQGTKLEIK
B7: H1M6712N (antibody, mouse IgG1, V domains shown)
VH: QVQLVQSGAEVKKPGASMKVSCKASGYTFTIYDINWVRQATGQGLEWMGWMNPRSGSTGYSQKFQGRVTMTRNTSINTAFMELSSLRSDDTAVYYCVRGQLVLGYWGQGTLVTVSS
VL: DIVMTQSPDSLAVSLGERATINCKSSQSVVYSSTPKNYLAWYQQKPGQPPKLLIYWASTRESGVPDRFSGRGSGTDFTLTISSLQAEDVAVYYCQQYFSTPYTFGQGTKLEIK
B8: H4H6364P (antibody, human IgG4, V domains shown)
VH: EVQLVESGGGLVQSGGSLRLSCAASGFTFSRYWMSWVRQAPGKGLEWVANIKQDGSEKDYVDSVKGRFTISRDNTKSSLFLQMNSLRAEDTAVYYCAKERWNWNFFDYWGQGTLVTVSS
VL: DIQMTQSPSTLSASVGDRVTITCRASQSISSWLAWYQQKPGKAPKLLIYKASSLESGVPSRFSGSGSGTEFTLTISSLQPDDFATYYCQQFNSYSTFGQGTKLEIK

Residue numbers refer to the chain shown, from its start. Numbers in names are those of the source. A value given as a limit tells only on which side of the number the result lay.

The EC50 is the concentration that produces a half-maximal response.

For the first experiment, the target named is T1, human ASIC1. Put plainly: cell-based or functional assay.
For B1, the “apparent IC50, human ASIC1 current, Q-Patch” value is ≤ 10 nM.

Consider B2, for which the “apparent IC50, human ASIC1 current, Q-Patch” value is < 1 nM.

Another experiment addresses T2, mouse ASIC1a. Put plainly: cell-based or functional assay.
On to B1, for which the “apparent IC50, mouse ASIC1 current, Q-Patch” value is < 25 nM.

For a further experiment, the target named is T3, human ASIC3. Put plainly: FACS, 3T3/hASIC3 cells. The source says:
(§1) For these experiments, four cell lines were constructed: (a) a mouse fibroblast 3T3 cell line stably transfected to overexpress full length human ASIC3 (3T3/hASIC3; amino acids 1-531 of NCBI accession number NP_{—}004760.1), (b) a 3T3 cell line stably transfected to co-express full length human ASIC1a and human ASIC3 (3T3/hASIC1/3; amino acids 1-528 of NCBI accession number NP_{—}001086.2 and amino acids 1-531 of NCBI accession number NP_{—}004760.1), (c) […] a stably transfected 3T3 cell line expressing the full-length mouse ASIC3 channel (3T3/mASIC3; amino acids 1-530 of NCBI accession number NP_{—}892045.2), and (d) a 3T3 cell line stably transfected to co-express full length mouse ASIC1a and mouse ASIC3 (3T3/mASIC1/3; amino acids 1-526 of NCBI accession number NP_{—}033727 and amino acids 1-530 of NCBI accession number NP_{—}892045.2). Antibody binding was determined using flow cytometry (FACS).
(§2) To perform the FACS binding experiments, adherent cells were collected with cold Millipore Accutase 3-5 minutes, spun and resuspended in ice-cold FACS buffer (PBS, 2% HI-FBS and 0.09% Na-azide). Anti-ASIC1 antibody at final concentrations of 10 nM was added for 20-30 minutes on ice. Cells were washed with 900 μL ice-cold FACS buffer, spun, and resuspended in 100 μL ice-cold FACS buffer. A secondary antibody which recognizes human Fc (Jackson Immuno Research, #109-136-098) and is conjugated to allophycocyanin, was then added to the cell mixture at a final concentration of 2.5 ug/mL. After incubating for 20 minutes on ice, the cells were washed and resuspended in FACS buffer, then sorted and analyzed on a flow cytometer (FACSCanto II, BD Biosciences, San Jose, Calif.) to determine relative binding by the candidate antibodies to the tested cell lines. Histograms of cells stained with anti-ASIC1 antibodies were compared with those of cells stained with secondary antibody alone. Percentage of ASIC1 signal over secondary antibody alone was calculated using FlowJo software (Tree Star, Ashland, Oreg.).
A general note: A flow cytometer gives signals particle by particle.
B3: the binding result is given as “no binding (tested: 10 nM; gated lower than 1%)”.

Take B4: the binding result is reported as “no binding (tested: 10 nM; gated lower than 1%)”.

Turning to B5, the binding result is “no binding (tested: 10 nM; gated lower than 1%)”.

For the molecule B2, the binding result is listed as “no binding (tested: 10 nM; gated lower than 1%)”.

As to B6, the binding result is recorded as “no binding (tested: 10 nM; gated lower than 1%)”.

The target of a further experiment is T1, human ASIC1. Put plainly: cell-based or functional assay. This is another data set of the same source.
As to B7, the “FLIPR Dose Curve, pH 5.0 % Block” value was 10%; the “FLIPR Dose Curve, pH 5.5 % Block” value turned out to be 64%; the “FLIPR Dose Curve, pH 5.5 IC50” value worked out at 6 nM.

As for B3, the “FLIPR Dose Curve, pH 5.0 % Block” value was 10%; the “FLIPR Dose Curve, pH 5.5 % Block” value is 39%; the “FLIPR Dose Curve, pH 5.5 IC50” value amounted to 0.1 nM.

For the molecule B4, the “FLIPR Dose Curve, pH 5.0 % Block” value turned out to be 56%; the “FLIPR Dose Curve, pH 5.0 IC50” value worked out at 1 nM; the “FLIPR Dose Curve, pH 5.5 % Block” value came out at 71%; the “FLIPR Dose Curve, pH 5.5 IC50” value is 0.9 nM.

Turning to B5, the “FLIPR Dose Curve, pH 5.0 % Block” value worked out at 23%; the “FLIPR Dose Curve, pH 5.5 % Block” value was 63%; the “FLIPR Dose Curve, pH 5.5 IC50” value was found to be 0.2 nM.

The target in a further experiment is T1, human ASIC1. Put plainly: cell-based or functional assay. This is another data set of the same source.
In the case of B7, the “Current inhibition (%) at 100 nM antibody, Q-Patch, pH 6.0” value (from here on “Current inhibition (%)”) was determined as 0%.

Regarding B3, the “Current inhibition (%)” value amounted to 30%.

In the case of B8, the “Current inhibition (%)” value was 0%.

The next experiment deals with T1, human ASIC1. Put plainly: FACS titration, 3T3/hASIC1 cells. How it is done:
To perform the FACS binding experiments, adherent cells were collected using 1 mM EDTA in PBS, then washed, and re-suspended in cold PBS containing 5% FBS. For each binding experiment, each anti-ASIC1 antibody ([…] or ND7 cells) was added to 250,000 cells in 500 μL of PBS with 5% FBS. After incubation for 20 minutes at room temperature, a secondary antibody which recognizes human Fc (Cat. No. 109-136-098, Jackson ImmunoResearch Laboratories, Inc., West Grove, Pa.) or mouse Fc (Cat. No. 550826, BD Biosciences, San Jose, Calif.) and is conjugated to allophycocyanin, was then added to the cell mixture at a final concentration of 13.3 nM. After incubating for 20 minutes on ice, the cells were washed and resuspended in PBS containing 5% FBS, then sorted and analyzed on a flow cytometer (FACSCalibur, BD Biosciences, San Jose, Calif.) to determine relative binding by the candidate antibodies to the tested cell lines. Histograms of cells stained with anti-ASIC1 antibodies were compared with those of cells stained with secondary antibody alone. Percentage of ASIC1 signal over secondary antibody alone was calculated using FlowJo software (Tree Star, Ashland, Oreg.).
Take B7: the EC50 is < 0.1 nM.

In the case of B3, the midpoint of the response, the EC50, lay at 0.072 nM.

B4 displayed an EC50 of 0.853 nM.

For the molecule B5, the EC50 is 0.215 nM.

With B1, the EC50 was > 67 nM.

On to B2, for which the midpoint of the response, the EC50, lay at 1.7 nM.

With B8, it took 1.5 nM to reach a half-maximal effect (EC50).

For the next experiment, the target named is T3, human ASIC3. Put plainly: FACS, 3T3/hASIC3 cells, 10 nM antibody.
Source text: as §1, §2
For B7, the binding result is recorded as “binds”.

Regarding B8, the binding result was “binds”.

In another experiment the target is T4, human ASIC1/ASIC3 channels …. Put plainly: FACS, 3T3/hASIC1/3 cells, 10 nM antibody.
Source text: as §1, §2
For B7, the binding result is listed as “binds”.

Take B3: the binding result was “binds”.

Take B4: the binding result is listed as “binds”.

With B5, the binding result was “binds”.

On to B2, for which the binding result is on record as “binds”.

For the molecule B6, the binding result is recorded as “binds”.

As to B8, the binding result was “binds”.

The values above are taken from patent US20140056907A1 (Regeneron, published 2014).
